Measured values as given in patent US20150344570A1 (published 2015).

Legend:
Experiment in all cases: SPR (Biacore); KD of H240-Kn033/H240-Hl033/L73-k0 divided by KD of this variant
[1] = biological target: T1, FcgRIIIaF (human, UniProt P08637 17-208)
T1 construct: extracellular domain; also called FcγRIIIa F; 3aF; not shown: His tag attached to the C terminus
Experimental: (§1) H240-Kn204/H240-Hl211/L73-k0 and H240-Kn205/H240-Hl212/L73-k0 were prepared according to the method of Reference Example 1, by combining H240-Kn204 as one of the H chains and L73-k0 as the L chains with H240-Hl211 as the other H chain, and by combining H240-Kn205 as one of the H chains and L73-k0 as the L chains with H240-Hl212 as the other H chain, and then expressing them. The binding of the prepared variants to FcgRIa, FcgRIIaR, FcgRIIaH, FcgRIIb, FcgRIIIaF, and FcgRIIIaV was measured according to the method of Reference Example 8.
(§2) “fold 2aR”, “fold 2aH”, “fold 2b”, “fold 3aF”, and “fold 3aV” show the relative binding activity of each variant to FcgRIIaR, FcgRIIaH, FcgRIIb, FcgRIIIaF, and FcgRIIIaV, respectively, when the binding activity of H240-Kn033/H240-Hl033/L73-k0, a variant produced by introducing only alterations that promote formation of a heterodimerized antibody into a native IgG1, is defined as 1. Specifically, they are values obtained by dividing the KD value of H240-Kn033/H240-Hl033/L73-k0 for each FcgR by the KD value of an individual variant for each FcgR.
(§3) Analysis of interaction between objective antibody and the FcγR was carried out using Biacore T100 (GE Healthcare), Biacore T200, Biacore A100, and Biacore 4000. HBS-EP+ (GE Healthcare) was used as the running buffer, and the measurement temperature was set to 25° C. Chips produced by immobilizing the antigen peptide by the amine coupling method to a Series S sensor Chip CM5 (GE Healthcare), chips produced by allowing preliminarily biotinylated antigen peptides to interact with and immobilize onto a Series S Sensor Chip SA (certified) (GE Healthcare), chips produced by immobilizing Protein L (ACTIGEN, BioVision) to Series S Sencor Chip CM5 (GE Healthcare), or chips produced by immobilizing Protein A/G (Thermo Scientific) to Series S Sencor Chip CM5 (GE Healthcare) were used. Antibodies of interest were captured onto these chips, and allowed to interact to each FcγR diluted with running buffer.

[2] = biological target: T2, FcgRIIaH (human, UniProt P12318 34-217)
T2 construct: extracellular domain; also called FcγRIIa H; FcgRIIa type H; not shown: His tag attached to the C terminus
T2 sequence (looked up): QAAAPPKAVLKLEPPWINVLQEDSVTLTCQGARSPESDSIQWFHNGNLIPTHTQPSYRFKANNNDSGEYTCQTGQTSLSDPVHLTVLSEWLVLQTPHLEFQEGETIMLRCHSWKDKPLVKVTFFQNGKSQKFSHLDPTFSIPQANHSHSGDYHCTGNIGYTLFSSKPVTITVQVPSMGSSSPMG
Experimental: as §1, §2, §3

[3] = biological target: T3, FcgRIIb (human, UniProt P31994 43-217)
T3 construct: extracellular domain; also called FcγRIIb; 2b; not shown: His tag attached to the C terminus
T3 sequence (looked up): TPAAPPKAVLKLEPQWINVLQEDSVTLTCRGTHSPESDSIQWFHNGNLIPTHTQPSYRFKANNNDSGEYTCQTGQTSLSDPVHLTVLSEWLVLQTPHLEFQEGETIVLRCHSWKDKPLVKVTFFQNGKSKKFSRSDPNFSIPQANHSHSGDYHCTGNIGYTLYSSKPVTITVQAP
Experimental: as §1, §2, §3

[4] = biological target: T4, FcgRIIIaV (human, UniProt P08637 17-208)
T4 construct: extracellular domain; also called FcγRIIIa V; 3aV; not shown: His tag attached to the C terminus
T4 sequence (P08637 17-208 F176V limits assumed): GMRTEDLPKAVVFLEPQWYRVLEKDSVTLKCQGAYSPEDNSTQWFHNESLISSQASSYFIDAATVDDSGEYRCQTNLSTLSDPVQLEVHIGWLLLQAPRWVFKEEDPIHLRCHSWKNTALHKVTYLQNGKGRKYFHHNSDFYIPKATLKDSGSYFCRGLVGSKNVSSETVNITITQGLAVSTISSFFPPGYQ
Experimental: as §1, §2, §3

[5] = biological target: T5, FcgRIIaR (human, UniProt P12318 34-217)
T5 construct: extracellular domain; also called FcγRIIa R; FcgRIIa type R; not shown: His tag attached to the C terminus
T5 sequence (looked up): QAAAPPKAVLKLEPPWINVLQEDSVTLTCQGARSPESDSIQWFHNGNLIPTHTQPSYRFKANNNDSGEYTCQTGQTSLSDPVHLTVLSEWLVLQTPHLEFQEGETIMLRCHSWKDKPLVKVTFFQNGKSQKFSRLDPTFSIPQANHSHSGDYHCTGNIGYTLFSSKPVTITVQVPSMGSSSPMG
Experimental: as §1, §2, §3

T1 sequence (P08637 17-208): as the sequence (P08637 17-208 F176V limits assumed) above, with V160F counted along it

B1: H240-Kn032/H240-Hl032/L73-k0 (antibody, human IgG1, kappa)
heavy 1: QDQLVQSGAEVKKPGASVKVSCKASGFNIKDTYIQWVRQAPGQGLEWMGRIDPLRKQTKYREKFEGRVTITADTSTNTAYMELSSLRSEDTAVYYCVRSGREFDYWGQGTLVTVSSASTKGPSVFPLAPSSKSTSGGTAALGCLVKDYFPEPVTVSWNSGALTSGVHTFPAVLQSSGLYSLSSVVTVPSSSLGTQTYICNVNHKPSNTKVDKKVEPKSCDKTHTCPPCPAPELLGGPDVFLFPPKPKDTLMISRTPEVTCVVVDVSHEDPEVKFNWYVDGVEVHNAKTKPREEQYNSTYRVVSVLTVLHQDWLNGKEYKCKVSNKALPLPEEKTISKAKGQPREPQVCTLPPSRDELTKNQVSLWCLVKGFYPSDIAVEWESNGQPENNYKTTPPVLDSDGSFFLYSKLTVDKSRWQQGNVFSCSVMHEALHNHYTQKSLSLSP
heavy 2: QDQLVQSGAEVKKPGASVKVSCKASGFNIKDTYIQWVRQAPGQGLEWMGRIDPLRKQTKYREKFEGRVTITADTSTNTAYMELSSLRSEDTAVYYCVRSGREFDYWGQGTLVTVSSASTKGPSVFPLAPSSKSTSGGTAALGCLVKDYFPEPVTVSWNSGALTSGVHTFPAVLQSSGLYSLSSVVTVPSSSLGTQTYICNVNHKPSNTKVDKKVEPKSCDKTHTCPPCPAPELLGGPDVFLFPPKPKDTLMISRTPEVTCVVVDVSHEDPEVKFNWYVDGVEVHNAKTKPREEQYNSTYRVVSVLTVLHQDWLNGKEYKCKVSNKALPLPEEKTISKAKGQPREPQVYTLPPSRCELTKNQVSLSCAVKGFYPSDIAVEWESNGQPENNYKTTPPVLDSDGSFFLVSKLTVDKSRWQQGNVFSCSVMHEALHNHYTQKSLSLSP
light: DIQMTQSPSSLSASVGDRVTITCRASQDIHKYIAWYQQKPGQAPRLLIQYTSTLQPGVPSRFSGSGSGTDYTFTISSLQPEDIATYYCLQYEQLRTFGGGTKVEIKRTVAAPSVFIFPPSDEQLKSGTASVVCLLNNFYPREAKVQWKVDNALQSGNSQESVTEQDSKDSTYSLSSTLTLSKADYEKHKVYACEVTHQGLSSPVTKSFNRGEC
notes: Anti-epiregulin IgG1, knobs-into-holes; S239D/A330L/I332E in both H chains (comparison antibody)
- fold 3aF [1]: 31.9 fold
- fold 2aH [2]: 0.8 fold
- fold 2b [3]: 5.3 fold
- fold 3aV [4]: 15.5 fold
- fold 2aR [5]: 2.2 fold

B2: H240-Kn037/H240-Hl036/L73-k0 (antibody, human IgG1, kappa)
heavy 1: QDQLVQSGAEVKKPGASVKVSCKASGFNIKDTYIQWVRQAPGQGLEWMGRIDPLRKQTKYREKFEGRVTITADTSTNTAYMELSSLRSEDTAVYYCVRSGREFDYWGQGTLVTVSSASTKGPSVFPLAPSSKSTSGGTAALGCLVKDYFPEPVTVSWNSGALTSGVHTFPAVLQSSGLYSLSSVVTVPSSSLGTQTYICNVNHKPSNTKVDKKVEPKSCDKTHTCPPCPAPELLAGPDVFLFPPKPKDTLMISRTPEVTCVVVDVSHEDPEVKFNWYVDGVEVHNAKTKPREEQYNSTYRVVSVLTVLHQDWLNGKEYKCKVSNKALPAPEEKTISKAKGQPREPQVCTLPPSRDELTKNQVSLWCLVKGFYPSDIAVEWESNGQPENNYKTTPPVLDSDGSFFLYSKLTVDKSRWQQGNVFSCSVMHEALHNHYTQKSLSLSP
heavy 2: QDQLVQSGAEVKKPGASVKVSCKASGFNIKDTYIQWVRQAPGQGLEWMGRIDPLRKQTKYREKFEGRVTITADTSTNTAYMELSSLRSEDTAVYYCVRSGREFDYWGQGTLVTVSSASTKGPSVFPLAPSSKSTSGGTAALGCLVKDYFPEPVTVSWNSGALTSGVHTFPAVLQSSGLYSLSSVVTVPSSSLGTQTYICNVNHKPSNTKVDKKVEPKSCDKTHTCPPCPAPELLAGPDVFLFPPKPKDTLMISRTPEVTCVVVDVSHEDPEVKFNWYVDGVEVHNAKTKPREEQYNSTYRVVSVLTVLHQDWLNGKEYKCKVSNKALPAPEEKTISKAKGQPREPQVYTLPPSRCELTKNQVSLSCAVKGFYPSDIAVEWESNGQPENNYKTTPPVLDSDGSFFLVSKLTVDKSRWQQGNVFSCSVMHEALHNHYTQKSLSLSP
light: DIQMTQSPSSLSASVGDRVTITCRASQDIHKYIAWYQQKPGQAPRLLIQYTSTLQPGVPSRFSGSGSGTDYTFTISSLQPEDIATYYCLQYEQLRTFGGGTKVEIKRTVAAPSVFIFPPSDEQLKSGTASVVCLLNNFYPREAKVQWKVDNALQSGNSQESVTEQDSKDSTYSLSSTLTLSKADYEKHKVYACEVTHQGLSSPVTKSFNRGEC
- fold 3aF [1]: 13.8 fold
- fold 2aH [2]: 11.3 fold
- fold 2b [3]: 8.7 fold
- fold 3aV [4]: 7.1 fold
- fold 2aR [5]: 25.5 fold

B3: H240-Kn120/H240-Hl068/L73-k0 (antibody, human IgG1, kappa)
heavy 1: QDQLVQSGAEVKKPGASVKVSCKASGFNIKDTYIQWVRQAPGQGLEWMGRIDPLRKQTKYREKFEGRVTITADTSTNTAYMELSSLRSEDTAVYYCVRSGREFDYWGQGTLVTVSSASTKGPSVFPLAPSSKSTSGGTAALGCLVKDYFPEPVTVSWNSGALTSGVHTFPAVLQSSGLYSLSSVVTVPSSSLGTQTYICNVNHKPSNTKVDKKVEPKSCDKTHTCPPCPAPEYYWGPMVFLFPPKPKDTLMISRTPEVTCVVVDVSDEDPEVKFNWYVDGVEVHNAKTKPREEQYNATYRVVSVLTVLHQDWLNGKEYKCKVSNKDLPAPIEKTISKAKGQPREPQVCTLPPSRDELTKNQVSLWCLVKGFYPSDIAVEWESNGQPENNYKTTPPVLDSDGSFFLYSKLTVDKSRWQQGNVFSCSVMHEALHNHYTQKSLSLSP
heavy 2: QDQLVQSGAEVKKPGASVKVSCKASGFNIKDTYIQWVRQAPGQGLEWMGRIDPLRKQTKYREKFEGRVTITADTSTNTAYMELSSLRSEDTAVYYCVRSGREFDYWGQGTLVTVSSASTKGPSVFPLAPSSKSTSGGTAALGCLVKDYFPEPVTVSWNSGALTSGVHTFPAVLQSSGLYSLSSVVTVPSSSLGTQTYICNVNHKPSNTKVDKKVEPKSCDKTHTCPPCPAPELLGGPSVFLFPPKPKDTLMISRTPEVTCVVVDVSHEEPEVKFNWYVDGVEVHNAKTKPREEQYNSTYRVVSVLTVLHQDWLNGKEYKCKVSNDALPKPIEETISKAKGQPREPQVYTLPPSRCELTKNQVSLSCAVKGFYPSDIAVEWESNGQPENNYKTTPPVLDSDGSFFLVSKLTVDKSRWQQGNVFSCSVMHEALHNHYTQKSLSLSP
light: DIQMTQSPSSLSASVGDRVTITCRASQDIHKYIAWYQQKPGQAPRLLIQYTSTLQPGVPSRFSGSGSGTDYTFTISSLQPEDIATYYCLQYEQLRTFGGGTKVEIKRTVAAPSVFIFPPSDEQLKSGTASVVCLLNNFYPREAKVQWKVDNALQSGNSQESVTEQDSKDSTYSLSSTLTLSKADYEKHKVYACEVTHQGLSSPVTKSFNRGEC
notes: Anti-epiregulin heterodimerized IgG1, knobs-into-holes
- fold 3aF [1]: 121 fold
- fold 2aH [2]: 11.8 fold
- fold 2b [3]: 22 fold
- fold 3aV [4]: 146 fold
- fold 2aR [5]: 32.2 fold
